In the DeepSol protein solubility set:

Assay: soluble on expression in E. coli; label from the status in PepcDB or PDB records

| Sequence | soluble on expression in E. coli |
| --- | --- |
| INAGTDLDNPKDLEVSDPTETTLSLRWRRPVAKFDRYRLTYVSPSGKKNEMEIPVDSTSFILRGLDAGTEYTISLVAEKGRHKSKPTTIKGSTVVGSPKGISFSDITENSATVSWTPPRSRVDSYRVSYVPITGGTPNVVTVDGSKTRTKLVKLVPGVDYNVNIISVKGFEESEPISGILKTALDS | soluble |
| IPFPLSAYTHGGEFVRQLDKRILILDGAMGTMIQRYKLGEADFRGERFAEHHKDLKGDNELLSLVRPDVIAEIHRQYLEAGADVIETNTFGATSIAQGDYDLPELAYEMNLESARLARAACDAYSTPEHPRFVAGALGPQPKTASISPDVNDPGARNVTFDELRAAYVEQLNGLLDGGIDIVLIETIFDTLNAKAAIFAVEEAFEARGVRLPVMISGTVTDASGRILSGQTVEAFWNSVRHARPVTIGLNCALGAALMRPYVAELSKICDTYVCVYPNAGLPNPMAETGFDETPADTSALLEEFAQAGLVNMAGGCCGTTPEHIRAIAGKVAALTPRAVPEVPVKTRLSGLEALNIDDETLFVNVGERTNVTGSKMF | not soluble |
| IPLKSIEVPFEGELLPGYAIISEDKAQDTLIVVGGGDTSREDLFYMLGYSGWEHDYNVLMVDLPGQGKNPNQGLHFEVDARAAISAILDWYQAPTEKIAIAGFSGGGYFTAQAVEKDKRIKAWIASTPIYDVAEVFRISFSTALKAPKTILKWGSKLVTSVNKVAEVNLNKYAWQFGQVDFITSVNEVLEQAQIVDYNKIDVPSLFLVGAGEDSELMRQSQVLYDNFKQRGIDVTLRKFSSESGADAHCQVNNFRLMHYQVFEWLNHIFKKKD | not soluble |
| IQHATASLIQTNTDQELLVVDVTPSFASLWLVPNINDFHQRHPNIRVKILTGDGAVKNIHGESDLHVRCLPLSTHYEYSQLLCEETLLLIGNTNLPKLSDNQAISHYPFIPQTTRPQLWEQFKQENDLECPITYHSVGFEHFYLACEAVRMEKGLALLPDFMAQFSILRGDIQHIGNLKLHSGYGYYVVIPNFRLTSRKVALFHDWLKDKLTHHT | soluble |
| IQQANEEAVTRIIQSKPILVGFDKAINVMPDMTETTILHAGPPITYENMCGPMKGAVQGALVFEGLAKDLADADRVARSGAITFSPCHEHDAVGSMAGVTSPNMYVHIIKNETYGNTAFTNLSEQLAKVLRFGANDQSVVDRLIWMRDVLGPLLHDAMTFCPEGIDLRLMLSQALHMGDECHNRNVAGSTLLVQALTPYMVQTDFSREQLKEVFEFLGSSDYFSGPTWMGAAKCALDAGHNVENSTIVTTMCRNGVEFGIRVSGIGGNHWFTGPAQRVIGPMFAGYTQEDAGLDMGDSAITETYGVGGFAMAAAPAIVPLVGGTVAEALNYSKEMLEITTKENPNVTIPVLDFMGIPTGIDVLKVLETGMLPVINTAIAHKEPGIGMIGAGLTNPPANVFNEALKALVATIN | not soluble |
| IQRQMFPNIEVNYIDVRATYPGASPQEIEESILVKVEESIKDVTGIKKVVSRASRGSAYISIEVDVNADIKRVLDDVNQRIDTISNLPLGMEPINVYQVEWRQDVIEMGLVGDRPLEELKPIAKQIEDELLQLNNVMLVYLSAPEEEIAIEVDPLVLRKYDLTLNDVSNAIRRYSANFSAGEVKTNSGMIAVRIENQYYRGDEFRNIPVKLGANGAKVLLQDIATIKDGFTEEERYFEYSGQNAIYMSVEATRDQNIIPVAQSVRDYIEAKNKTLPSDVQLKILVDMTYYLNGRLDMMLK | not soluble |
| ISDLHPQLQPLAETFLRLCRDQGVDPLLICTWRSSEEQAQLYRRGRDLPGAIVTYARPGESAHNATLHGNPAARAFDVVPLLAGKPICDIDHPHWQVMGR | not soluble |
| ISDPVELLKRAEKKGVPSSGFMKLFSGSDSYKFEEAADLCVQAATIYRLRKELNLAGDSFLKAADYQKKAGNEDEAGNTYVEAYKCFKSGGNSVNAVDSLENAIQIFTHRGQFRRGANFKFELGEILENDLHDYAKAIDCYELAGEWYAQDQSVALSNKCFIKCADLKALDGQYIEASDIYSKLIKSSMGNRLSQWSLKDYFLKKGLCQLAATDAVAAARTLQEGQSEDPNFADSRESNFLKSLIDAVNEGDSEQLSEHCKEFDNFMRLDKWKITILNKIKESIQQQEDDLL | soluble |
| ISGGSSISMMYKYCSRLPHDEFFQPKPEFQFKPVDEFGGTICRITLPANAPISEIESSLLPSTEAAKKDACLKAVHELHNLGVLNDFLLPDSKDEIEDELSD | soluble |
| IVGGYTCEENSLPYQVSLNSGSHFCGGSLISEQWVVSAAHCYKTRIQVRLGEHNIKVLEGNEQFINAAKIIRHPKYNRDTLDNDIMLIKLSSPAVINARVSTISLPTAPPAAGTECLISGWGNTLSFGADYPDELKCLDAPVLTQAECKASYPGKITNSMFCVGFLEGGKDSCQRDAGGPVVCNGQLQGVVSWGHGCAWKNRPGVYTKVYNYVDWIKDTIAANS | soluble |
| IYQMAGLNEDADRNLWLAAFRDPYGKNNLDIASLKKSIAQWAKTQGKTIAPEKVDAVLKDRTGSAVCLTCGKNGKMKMPLKSLAWIQGSSSYSQAEVIEQTEETNSAEISETRTPEVPDVHTPEAQPHLNTQSDGTPTAYTEPAADSSPQVETPDQAASEPVDVLFSIDVIRQGNLRLGN | not soluble |
| KAHGNFPVYRNTDVTFLPTGEAFFEKMKEELLKAKKYIFLEFFIIDEGIMWGEILSILEQKVEEGVEVRILYDGMIEITKLSFDYTKRLEKIGIKAKAFSPISPFISTYYNYRDHRKIVVIDGVVGMTGGVNLADEYINHIELFGHWKDSGIMLKGKAVDSFLLLFLQMWSITEEKMLVAPYLGVHDDLVENEGYVIPYGDSPLDTDKVGENV | not soluble |
| KCETKEKGAITAKELYTMMTDKNISLIIMDARRMQDYQDSCILHSLSVPEEAISPGVTASWIEAHLPDDSKDTWKKRGNVEYVVLLDWFSSAKDLQIGTTLRSLKDALFKWESKTVLRNEPLVLEGGYENWLLCYPQYTTNAKV | soluble |
| KDQIPIILIHGSGGNASSLDKMADQLMNEYRSSNEALTMTVNSEGKIKFEGKLTKDAKRPIIKFGFEQNQATPDDWSKWLKIAMEDLKSRYGFTQMDGVGHSNGGLALTYYAEDYAGDKTVPTLRKLVAIGSPFNDLDPNDNGMDLSFKKLPNSTPQMDYFIKNQTEVSPDLEVLAIAGELSEDNPTDGIVPTISSLATRLFMPGSAKAYIEDIQVGEDAVHQTLHETPKSIEKTYWFLEKFKTDETVIQLDYK | soluble |
| KEKIAILVDVQNVYYTCREAYRSNFDYNQFWYVATQEKEVVSAKAYAIASNDPKQRQFHHILRGVGFEVMLKPYIQRRDGSAKGDWDVGITLDAIEIAPDVDRVILVSGDGDFSLLVERIQQRYNKKVTVYGVPRLTSQTLIDCADNFVAIDDDFL | not soluble |
| KENGKRTEVKIGAKTSVMKEKDGKLFTGKANKETNKVDGANATEDADEGKGLVTAKDVIDAVNKTGWRIKTTDANGQNGDFATVASGTNVTFASGNGTTATVTNGTDGITVKYDAK | soluble |
| KEYSHLPIKGNESNLIDTLEDAISLRVPKNRPFAVALSGGLDSSIIAYILEARLSENAHYYVVGERYPDSVLALLEHLNICLSRVHLIKPPPADELLKLITKTCHITKSYNPSIISNGLATLLLCKAVHQDGIRVMLSGEGADEFFCGYQGMYNGRNDPTEMRANLIKDLHFTELRRLDLISASFSVEARCPFLDQRVTQIAMMLDVKNLCDIPMNIGKTLLRDTFKHLLPHSIINAPKESFDITSGLQKLVIDELQKEFKSERVALRTIFEKTLANY | not soluble |
| KFDGDDPVIPEWTQGGQIIPTMNLKVGDSVYTRVFDQSGENVAYRTELAISNDVLTQAKNWSYALASKINQEQTKLQAGQYSEDKFTPVYGTNPIYLQSNSGLERVEIGYNIETPVPDYSLTVDGLASEYIIGTEPTALDLTLTAEGDLTAELTVYNHHREPLASWTGSIQDGASEQVELTLSKSEPGHHMLVTRIKDTDGNLVDQQTLDFHLKSEEVTPPPSGEYDFVFPEGLSSYTAGTKVLASDGAIYQCKPFPYSGYCVQWSESATQFEPATGSHWEMAWDKLN | not soluble |
| KFGASQDVVKWQEVTSNLPELSKKLMSSSSEPLSDDEMADLTLALRTRLHYQPEDSTGWLLLGRIALANRDVTTAIDSMKKSYALEPKDPDVMLGYAQALMLSQDEMDQATARSLLGKLMQQDYVDLRVFSLLAFDAFERKDYPAAIKYWGIMQQMIGPDDSRYESLSRSIDHARKQMGEVVSPDKSVAVTINVAPEAQLDPNAVLIVSIHRADGSPMPVAAARYPLGSFPRTVVLDDGNAMMQGQKLSSLEKLIVRVRADSDGNVATRDQDWHGESDVVEFGQPVAVTIDKQYQ | not soluble |
| KGSYDLIFGDKNTKNYYAKFAKDHQTHLYQKIKESKDEQFRFVETQETTNNLGN | soluble |
| KGTVCVTNLSTGSKRLGAIAPNSTMLAVRNSADCLLALQQNHADAVISDDAILSGMIAQDPFTHIVGDPIATEQYAVAFAKPRTGRDTAPMIRQVNSTFERIFRDGTWTRTYNHWFGAYLAPQVHPAVHYREER | not soluble |
| KIIVKHVTVIGGGLMGAGIAQVAAATGHTVVLVDQTEDILAKSKKGIEESLRKVAKKKFAENPKAGDEFVAKTLSTIATSTDAASVVHSTDLVVEAIVENLKVKNELFKRLDKRAAEHTIFASNTSSLQITSIANATTRQDRFAGLHFFNPVPVMKLVEVIKTPMTSQKTFESLVDFSKALGKHPVSCKDTPGFIVNRLLVPYLMEAIRLYERGDASKEDIDTAMKLGAGYPMGPFELLDYVGLDTTKFIVDGWHEMDAENPLHQPSPSLNKLVAENKFGKKTGEGFYKYKAA | soluble |
| KILLEPTKVSFWGILRTPFMEQFGNGITPFSVGGQPMQILGLRQAGVSLGEGSSVSLMK | not soluble |
| KLVIAIVQDKDANYLSDQFIDQNVRATKLSTTGGFLQSGNTTFMIGIEEERVPEVLEIIKKASHTREEFMTPSVNMDVNMEGTTAYPIKVQVGGATVLVLPVDQFERF | not soluble |
| KPFNDEKTAKIAEEVQQFYESNATISLNEYLENVGELGYELYLTDGAEKSTYYGGAFRKKDLPDKTIKQVLDGETYHGIDSFDTGIFITGFFDNDVRNTIGVPVQADGKQLALFIRQDPEKQFGE | not soluble |
| KRAGTVCSNCQTSTTTLWRRSPMGDPVCNACGLYYKLHQVNRPLTMRKDGIQTRNRKVSSKGKKRR | soluble |
| KSEKRMKLTLKGGAAVDPDSGLEHSAHVLEKGGKVFSATLGLVDIVKGTNSYYKLQLLEDDKENRYWIFRSWGRVGTVIGSNKLEQMPSKEDAIEHFMKLYEEKTGNAWHSKNFTKYPKKFYPLEI | soluble |
